Results published in patent US20220089691A1 (NATIONAL DEFENSE MEDICAL CENTER, published 2022).

Target: T1, SARS-CoV spike protein as made in Vero E6 cells infected with SARS-CoV (SARS-CoV, UniProt P59594 14-1255)
T1 construct: whole, on cells
Assay: IFA on Vero E6 cells infected with SARS-CoV

B1: Monoclonal antibody (mAb) 8a-1 (antibody, V domains shown)
VH: EVQLQESGGGLVQPGGSLKLSCAASGFTFSSYTMSWVRQTPEKRLEWVAYISNGGGSISYPDTVKGRFTISRDNAKNTLYLHMSSLKSEDTAMYHCAREGLRPGDRDRYYAMDYWGQGTSVTVSS
VL: DIVITQSPALMAAFPGDRVTITCSVSSSVSSSNLHWYRQKSETSPKPWIYGTSTLASGVPVRFSGSGSGTSYSLTISSMEAEDAATYYCQQWSSYPLTFGAGTKLELKR
notes: also called clone 8a-1; first antibody
binding result: binds

B2: Monoclonal antibody (mAb) 27b-2 (antibody, V domains shown)
VH: EVQLQESGGGLVKLGGSLKLSCAASGFTFSTYYMSWVRQTPEKRLELVAAINSNGGGTYYPDNVKGRFTISRDNAKNTLYLQMSSLKSEDTALYYCTNYFGSTYAMDYWGQGTSVTVSS
VL: DIVLTQSPLSLPVSLGDQASISCRSSQSLVHSNGNTYLHWYLQKPGQSPKLLIYKVSNRFSGVPDRFSGSGLGTDFTLKIIRVEAEDLGVYFCSQNTHVPFTFGSGTKLEIKR
notes: also called clone 27b-2; second antibody
binding result: binds
